From PMC4962041, “Human DNA-Damage-Inducible 2 Protein Is Structurally and Functionally Distinct from Its Yeast Ortholog” (Scientific Reports, 2016)
No end group written: not given here.

Tests used:
[1] = biological target: T1, human ubiquitin (human, UniProt P0CG48 1-76); experiment: NMR titration; 15N-labelled hDdi2 UBL (0.05 mM) with a 1- to 10-fold molar excess of UBQ; 50 mM sodium phosphate, pH 7.4, 25 °C; 1:1 model for the Kd; conditions: both partners purified
T1 construct: human ubiquitin, the cut product of the ubiquitin precursors; shifts were mapped on PDB 1D3Z; also called UBQ; mono-UBQ; source: 15N- or 15N/13C-labelled where observed by NMR

[2] = biological target: the molecule itself; experiment: SAXS; His-tagged HDD-RVP at 5 and 2.5 mg/ml in 25 mM Tris/HCl, 75 mM NaCl, 5% glycerol, 1 mM DTT, pH 7.4; molecular mass from the invariant Vc
[3] = biological target: T1, human ubiquitin; experiment: NMR titration; 15N-labelled UBQ (0.1 mM) with unlabelled peptide; 15N/1H-HSQC chemical shift perturbation; 50 mM sodium phosphate, pH 6.0 and pH 7.4, 25 °C; 1:1 model for the Kd; conditions: both partners purified
[4] = biological target: the molecule itself; experiment: crystal structure; hDdi2 RVP (212-360), 1.9 Å, PDB 4RGH; hanging drop, 0.2 M ammonium acetate, 0.1 M Bis-Tris pH 5.5, 25% PEG 3350

B1: hDdi2 UBL domain (residues 1-76) (domain or fragment, human, UniProt Q5TDH0 1-76, looked up)
chain: MLLTVYCVRRDLSEVTFSLQVDADFELHNFRALCELESGIPAAESQIVYAERPLTDNHRSLASYGLKDGDVVILRQ
notes: human DNA-damage-inducible 2 protein (Ddi homolog 2, 399 amino acids), residues 1-76: ubiquitin-like domain; also called N-terminal UBL domain of hDdi2; not shown: His tag, N-terminal, kept
Kd [1]: 420 to 1100 µM

B2: hDdi2 HDD-RVP (residues 116-360) (domain or fragment, human, UniProt Q5TDH0 116-360, looked up)
chain: QQSHSSPGEITSSPQGLDNPALLRDMLLANPHELSLLKERNPPLAEALLSGDLEKFSRVLVEQQQDRARREQERIRLFSADPFDLEAQAKIEEDIRQQNIEENMTIAMEEAPESFGQVVMLYINCKVNGHPVKAFVDSGAQMTIMSQACAERCNIMRLVDRRWAGIAKGVGTQKIIGRVHLAQVQIEGDFLPCSFSILEEQPMDMLLGLDMLKRHQCSIDLKKNVLVIGTTGSQTTFLPEGELPE
notes: human DNA-damage-inducible 2 protein (Ddi homolog 2, 399 amino acids), residues 116-360 (lacking both UBL and UIM); Called His-tagged for the SAXS experiment; dimer by SAXS; not shown: His tag, N-terminal, kept
stoichiometry N [2]: 2

B3: hDdi2-UIM peptide (peptide)
peptide: EEIADQELAEALQKSAEDAE-NH2
notes: Dissolved in DMSO before use; also called C-terminal hDdi2 UIM peptide; source: synthetic peptide (solid phase, HPLC purified)
Kd [3]: 2200 to 3200 µM

B4: hDdi2 RVP domain (residues 212-360) (domain or fragment)
chain: not shown
notes: Gln232 to Pro359 visible in the structure
binding result [4]: binds
